Experimental data taken from paper PMC6615629, “Hsp70-nucleotide exchange factor (NEF) Fes1 has non-NEF roles in degradation of gluconeogenic enzymes and cell wall integrity” (PLoS Genetics, 2019).
Numbering of substitutions follows the chain as printed. Names and notes keep the numbering of the source.

B1: His6-Fbp1 P2A (enzyme, yeast (S. cerevisiae), UniProt P09201 1-348, looked up)
chain: MATLVNGPRRDSTEGFDTDIITLPRFIIEHQKQFKNATGDFTLVLNALQFAFKFVSHTIRRAELVNLVGLAGASNFTGDQQKKLDVLGDEIFINAMRASGIIKVLVSEEQEDLIVFPTNTGSYAVCCDPIDGSSNLDAGVSVGTIASIFRLLPDSSGTINDVLRCGKEMVAACYAMYGSSTHLVLTLGDGVDGFTLDTNLGEFILTHPNLRIPPQKAIYSINEGNTLYWNETIRTFIEKVKQPQADNNNKPFSARYVGSMVADVHRTFLYGGLFAYPCDKKSPNGKLRLLYEAFPMAFLMEQAGGKAVNDRGERILDLVPSHIHDKSSIWLGSSGEIDKFLDHIGKSQ
notes: Fbp1, yeast gluconeogenic enzyme, P2A; the initiator methionine is counted as residue 1; source: E. coli expression, purified; not shown: His6, N-terminal, kept
B2: His6-Fbp1^P2A,S12A,T13A (enzyme, yeast (S. cerevisiae), UniProt P09201 1-348, looked up)
chain: B1 chain with S12A, T13A
notes: Fbp1, yeast gluconeogenic enzyme, P2A,S12A,T13A; the initiator methionine is counted as residue 1; source: E. coli expression, purified; not shown: His6, N-terminal, kept
B3: His6-Fbp1 (enzyme, yeast (S. cerevisiae), UniProt P09201 1-348, looked up)
chain: B1 chain with A2P
notes: Fbp1, yeast gluconeogenic enzyme; the initiator methionine is present in the purified protein and is counted as residue 1; also called wild type His6-Fbp1; not shown: His6, N-terminal, kept
B4: His6-Fbp1ΔP2 (enzyme, yeast (S. cerevisiae), UniProt P09201 1-348, looked up)
chain: MTLVNGPRRDSTEGFDTDIITLPRFIIEHQKQFKNATGDFTLVLNALQFAFKFVSHTIRRAELVNLVGLAGASNFTGDQQKKLDVLGDEIFINAMRASGIIKVLVSEEQEDLIVFPTNTGSYAVCCDPIDGSSNLDAGVSVGTIASIFRLLPDSSGTINDVLRCGKEMVAACYAMYGSSTHLVLTLGDGVDGFTLDTNLGEFILTHPNLRIPPQKAIYSINEGNTLYWNETIRTFIEKVKQPQADNNNKPFSARYVGSMVADVHRTFLYGGLFAYPCDKKSPNGKLRLLYEAFPMAFLMEQAGGKAVNDRGERILDLVPSHIHDKSSIWLGSSGEIDKFLDHIGKSQ
notes: Fbp1, yeast gluconeogenic enzyme, proline 2 deleted; the initiator methionine is counted as residue 1; also called Fbp1P2Δ; source: E. coli expression, purified; not shown: His6, N-terminal, kept
B5: GST-Fes1^A79R,R195A (natural protein, yeast (S. cerevisiae), UniProt P38260 1-290, looked up)
chain: MEKLLQWSIANSQGDKEAMARAGQPDPKLLQQLFGGGGPDDPTLMKESMAVIMNPEVDLETKLVAFDNFEMLIENLDNRNNIENLKLWEPLLDVLVQTKDEELRAAALSIIGTAVQNNLDSQNNFMKYDNGLRSLIEIASDKTKPLDVRTKAFYALSNLIRNHKDISEKFFKLNGLDCIAPVLSDNTAKPKLKMAAIALLTAYLSSVKIDENIISVLRKDGVIESTIECLSDESNLNIIDRVLSFLSHLISSGIKFNEQELHKLNEGYKHIEPLKDRLNEDDYLAVKYVL
notes: Fes1, yeast Hsp70 nucleotide exchange factor, double mutant A79R,R195A; also called Fes1RA; RA; source: E. coli expression, purified; not shown: GST, N-terminal, kept

Key:
Assay in all cases: pull-down; His6-Fbp1 (wild type or mutant) pulled down on Talon metal affinity resin; reactions with two or all three proteins; 6 μg each of His6-Fbp1 (1.6 μM), Hsp70 (0.9 μM) and GST-Fes1 (1.09 μM), with or without ATP, ADP or AMP (2.5 mM); 50 mM Tris-HCl pH 7.5, 150 mM NaCl, 2% glycerol, 5 mM MgCl2; 30 min at 4°C; washed with 5 mM imidazole, eluted with 250 mM imidazole; stained SDS-PAGE gels, bands quantified …
Details in all cases: both partners purified
Ssa1 = target: T1, Ssa1 (yeast (S. cerevisiae), UniProt P10591 1-642)
T1 construct: Ssa1, yeast cytosolic Hsp70; non-tagged; also called Hsp70; source: E. coli Rosetta 2(DE3), purified as described [51]

Ssa2 = target: T2, Ssa2 (yeast (S. cerevisiae), UniProt P10592 1-639)
T2 construct: Ssa2, yeast cytosolic Hsp70; non-tagged; also called Hsp70; source: E. coli Rosetta 2(DE3), purified as described [51]

His6-Fbp1 = target: B3

T2 sequence (P10592 whole entry): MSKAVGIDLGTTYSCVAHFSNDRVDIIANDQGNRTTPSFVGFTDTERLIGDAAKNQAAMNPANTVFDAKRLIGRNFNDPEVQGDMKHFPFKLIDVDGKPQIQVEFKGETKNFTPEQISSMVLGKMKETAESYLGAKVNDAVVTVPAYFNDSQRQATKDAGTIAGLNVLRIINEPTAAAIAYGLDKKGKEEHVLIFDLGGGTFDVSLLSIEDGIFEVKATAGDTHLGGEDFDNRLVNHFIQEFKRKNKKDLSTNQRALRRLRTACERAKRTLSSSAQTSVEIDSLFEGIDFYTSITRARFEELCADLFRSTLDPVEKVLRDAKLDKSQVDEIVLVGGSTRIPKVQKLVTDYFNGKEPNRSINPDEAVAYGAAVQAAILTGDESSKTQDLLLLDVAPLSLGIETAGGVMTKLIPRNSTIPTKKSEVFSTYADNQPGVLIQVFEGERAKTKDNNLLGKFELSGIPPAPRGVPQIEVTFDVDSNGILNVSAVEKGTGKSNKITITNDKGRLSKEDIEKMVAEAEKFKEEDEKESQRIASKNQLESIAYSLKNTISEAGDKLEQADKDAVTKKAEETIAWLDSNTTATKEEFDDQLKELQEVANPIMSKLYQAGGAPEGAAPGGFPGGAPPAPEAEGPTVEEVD
T1 sequence (P10591 whole entry): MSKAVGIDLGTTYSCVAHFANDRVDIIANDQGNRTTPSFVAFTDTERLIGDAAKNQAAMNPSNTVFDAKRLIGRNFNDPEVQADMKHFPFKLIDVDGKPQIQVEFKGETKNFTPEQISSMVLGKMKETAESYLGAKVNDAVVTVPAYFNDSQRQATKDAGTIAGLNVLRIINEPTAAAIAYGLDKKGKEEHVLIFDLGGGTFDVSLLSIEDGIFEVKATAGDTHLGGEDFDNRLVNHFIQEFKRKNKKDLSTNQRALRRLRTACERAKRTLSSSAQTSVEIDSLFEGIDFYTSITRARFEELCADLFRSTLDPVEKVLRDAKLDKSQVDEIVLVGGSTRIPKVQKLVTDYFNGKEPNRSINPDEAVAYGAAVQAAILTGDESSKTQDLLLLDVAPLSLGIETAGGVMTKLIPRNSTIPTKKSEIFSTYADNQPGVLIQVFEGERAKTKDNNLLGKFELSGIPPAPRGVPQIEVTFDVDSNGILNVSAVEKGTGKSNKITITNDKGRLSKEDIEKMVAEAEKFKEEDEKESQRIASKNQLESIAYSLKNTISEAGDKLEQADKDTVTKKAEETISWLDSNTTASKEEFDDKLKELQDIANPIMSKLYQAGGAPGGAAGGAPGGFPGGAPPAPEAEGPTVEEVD

| binding result (Ssa1) | binding result (Ssa2) | further results | Binder |
| --- | --- | --- | --- |
| binds | binds |  | B1 |
| binds | binds |  | B2 |
| binds | binds |  | B3 |
| binds | binds |  | B4 |
|  |  | ratio of amounts Fes1^A79R,R195A/Ssa1 pulled down by Fbp1, no nucleotide (His6-Fbp1): 1.7; ratio of amounts Fes1^A79R,R195A/Ssa1 pulled down by Fbp1, with ADP (His6-Fbp1): 5; ratio of amounts Fes1^A79R,R195A/Ssa1 pulled down by Fbp1, with AMP (His6-Fbp1): 3.3; ratio of amounts Fes1^A79R,R195A/Ssa1 pulled down by Fbp1, with ATP (His6-Fbp1): 6.4; ratio of amounts Fes1^A79R,R195A/Ssa2 pulled down by Fbp1, no nucleotide (His6-Fbp1): 2.4; ratio of amounts Fes1^A79R,R195A/Ssa2 pulled down by Fbp1, with ADP (His6-Fbp1): 4.5; ratio of amounts Fes1^A79R,R195A/Ssa2 pulled down by Fbp1, with AMP (His6-Fbp1): 1.9; ratio of amounts Fes1^A79R,R195A/Ssa2 pulled down by Fbp1, with ATP (His6-Fbp1): 4.3 | B5 |
